Laboratory results taken from publication PMC11429203 (Biomimetics, 2024).

B1: ACSAGLPHVLTPEAGATGASCA (Trimer-pep) (peptide)
peptide: ACSAGLPHVLTPEAGATGASCA
notes: Newly designed fusion peptide of 22 residues; also called fusion trimer peptide; source: synthetic peptide, custom-ordered from GenScript
B2: ACSAG (A-pep) (peptide)
peptide: ACSAG
notes: Unconjugated peptide (no DOX, no fluorescein) in the SPR and antibody-staining experiments; also called ACSAG peptide; source: synthetic peptide, custom-ordered from GenScript

Molecular target: T1, human FGFR2 protein (His-tag) residue 403-822 (human, UniProt P21802-3 403-822)
T1 construct: fibroblast growth factor receptor 2 (FGFR2), human, residues 403-822 (cytoplasmic part with the kinase domain); docking used residues 461-763 of PDB 7OZY, another construct; also called FGFR2 kinase domain; FGFR2 protein kinase domain; source: bought: Thermo Fisher Scientific
Test: SPR; FGFR2 (10 µg/mL) coupled through NHS/EDAC to 11-mercaptoundecanoic acid on gold chips; peptides flowed at 50 nM, 100 nM, 1 µM, 50 µM and 100 µM in 1X PBS, 30 µL/min, 2000 s; KD by non-linear regression, mean of three runs
Settings: both partners purified

T1 sequence (P21802 402-821): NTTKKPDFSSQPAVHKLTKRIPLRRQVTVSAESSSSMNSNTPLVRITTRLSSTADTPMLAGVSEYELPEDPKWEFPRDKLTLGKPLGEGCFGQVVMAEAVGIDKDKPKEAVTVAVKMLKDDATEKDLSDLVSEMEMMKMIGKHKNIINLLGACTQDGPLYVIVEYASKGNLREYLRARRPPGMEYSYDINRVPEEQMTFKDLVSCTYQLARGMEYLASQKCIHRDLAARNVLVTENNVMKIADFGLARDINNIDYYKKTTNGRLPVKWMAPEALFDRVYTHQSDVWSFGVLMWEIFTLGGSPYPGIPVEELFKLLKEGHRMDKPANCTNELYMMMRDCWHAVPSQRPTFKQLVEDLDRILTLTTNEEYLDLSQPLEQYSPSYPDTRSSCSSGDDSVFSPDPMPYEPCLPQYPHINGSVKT

| Binder | Kd |
| --- | --- |
| B1 | 7.53 µM |
| B2 | 14.1 µM |
